Source: article PMC2701625 (Biochemistry, 2009)

Target: the molecule itself
Experiment: cross-linking

B1: GST-hHsp90-N520 (GST tagged human hsp90β truncation, residues 520-724) (domain or fragment)
chain: not shown
- stoichiometry N: 4
